Test results published in patent publication US20120034231A1.

Columns and labels:
[1] = molecular target: cynomolgus IL12Rβ1 (cynomolgus); assay: FACS on Baf3 cells transfected with cyno IL12Rβ1, mouse control mAb
[2] = molecular target: human IL12Rβ1 (human) (UniProt P42701); assay: FACS on Baf3 cells transfected with human IL12Rβ1, mouse control mAb

With “Mab839 (mouse monoclonal anti-human IL12Rβ1 control antibody, R&D Systems, Cat# MAB839)” as the substance, how does the EC50 [1] read?
Its EC50 is 1.47 nM.

And the EC50 [2]?
The EC50 was 2.35 nM.
